Measurements taken from paper PMC9830511, “Flot2 acts as a novel mediator of podocyte injury in proteinuric kidney disease” (International Journal of Biological Sciences, 2023).

Biological target: T1, GST-Flot2 full length (amino acids 1-428) (mouse, UniProt Q60634 1-428)
T1 construct: it may add a CBP tag as well; also called GST-tagged Flot2
T1 sequence (looked up): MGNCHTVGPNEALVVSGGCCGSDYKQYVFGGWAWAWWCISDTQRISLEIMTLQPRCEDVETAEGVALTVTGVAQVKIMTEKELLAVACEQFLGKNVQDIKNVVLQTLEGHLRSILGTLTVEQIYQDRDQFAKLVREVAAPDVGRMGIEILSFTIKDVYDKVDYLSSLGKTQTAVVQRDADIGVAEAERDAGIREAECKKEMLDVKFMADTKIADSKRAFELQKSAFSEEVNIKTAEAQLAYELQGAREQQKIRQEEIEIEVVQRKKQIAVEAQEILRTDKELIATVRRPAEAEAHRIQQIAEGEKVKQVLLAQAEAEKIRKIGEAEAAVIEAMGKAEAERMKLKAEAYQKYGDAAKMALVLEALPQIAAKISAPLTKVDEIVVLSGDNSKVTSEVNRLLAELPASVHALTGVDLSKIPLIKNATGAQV
Experiment: pull-down; GST pull-down: GST-Flot2 (full length) on GST resin, His-podocin (full length); overnight at 4 °C; eluted with 20 mM reduced glutathione; immunoblot with anti-His
Conditions: both partners purified

binding result: binds
B1: His-podocin full length (natural protein, mouse, UniProt Q91X05 1-385, looked up)
chain: MDSRARSSSREAHGRSSRSSSRDDKKAKAGRGSRGRARPDAGAERQSTGRTATRGEPRAPAATATVVDVDEVRGPGEEGTEVVALLESERPEEGIKPSGLGACEWLLVLASLIFIIMTFPFSIWFCIKVVQEYERVIIFRLGHLLPGRAKGPGLFFFLPCLDTYHKVDLRLQTLEIPFHEVVTKDMFIMEIDAVCYYRMENASLLLSSLAHVSKAIQFLVQTTMKRLLAHRSLTEILLERKSIAQDVKVALDAVTCIWGIKVERTEIKDVRLPAGLQHSLAVEAEAQRQAKVRVIAAEGEKAASESLRMAAEILSGTPAAVQLRYLHTLQSLSTEKPATVVLPLPFDMLSLLSSPGNRAQGSINYPSSSKPVEPLNPKKKDSPML
notes: Podocin, mouse, full-length cDNA in pET-28a(+); also called His-tagged podocin; His-tagged mouse podocin
